Results on one protein are retold here after patent US20040157268.

The target in this data set is β2 adrenergic receptor modified to have a Flag epitope at the amino terminus and a TEV protease site within the third intracellular loop between residues 254 and 260 of the native protein.

B1: Tobacco Etch Virus (TEV) protease, recombinant (protein)
chain: GESLFKGPRDYNPISSTICHLTNESDGHTTSLYGIGFGPFIITNKHLFRRNNGTLLVQSLHGVFKVKNTTTLQQHLIDGRDMIIIRMPKDFPPFPQKLKFREPQREERICLVTTNFQTKSMSSMVSDTSCTFPSSDGIFWKHWIQTKDGQCGSPLVSTRDGFIVGIHSASNFTNTNNYFTSVPKNFMELLTNQEAQQWVSGWRLNADSVLWGGHKVFMSKPEEPFQPVKEATQLMNELVYSQ
In the case of B1, the “Ratio of TEV-cleaved to uncleaved receptor (axis 'cut/uncut'), from the blot of FIG. 11B” value is “Two bars, no error bars and no printed values. The 'Control' bar ends just above the 0.3 tick. The 'Isoproterenol' bar ends between the 1.2 and 1.5 ticks, several times higher than the control”; the “TEV cleavage of the receptor (Western blot; ratio of cleaved to uncleaved receptor), with and without the agonist isoproterenol” value was “TEV cleavage of the 12 adrenergic receptor was enhanced in the presence of isoproterenol”; the “TEV cleavage of the receptor's third-loop TEV site, seen as the lower (cleaved, N-terminal) band on a Western blot probed with M1 antibody” value was “No lower band without TEV (TEV-/ISO-). Very faint lower band with TEV alone (TEV+/ISO-). Strong lower band and a weaker upper band with TEV plus isoproterenol (TEV+/ISO+)”.
